For the assay, the target named is T1, human CAPRIN-1 protein expressed on the surface of human cancer cells (human, UniProt Q14444 2-709).
T1 sequence: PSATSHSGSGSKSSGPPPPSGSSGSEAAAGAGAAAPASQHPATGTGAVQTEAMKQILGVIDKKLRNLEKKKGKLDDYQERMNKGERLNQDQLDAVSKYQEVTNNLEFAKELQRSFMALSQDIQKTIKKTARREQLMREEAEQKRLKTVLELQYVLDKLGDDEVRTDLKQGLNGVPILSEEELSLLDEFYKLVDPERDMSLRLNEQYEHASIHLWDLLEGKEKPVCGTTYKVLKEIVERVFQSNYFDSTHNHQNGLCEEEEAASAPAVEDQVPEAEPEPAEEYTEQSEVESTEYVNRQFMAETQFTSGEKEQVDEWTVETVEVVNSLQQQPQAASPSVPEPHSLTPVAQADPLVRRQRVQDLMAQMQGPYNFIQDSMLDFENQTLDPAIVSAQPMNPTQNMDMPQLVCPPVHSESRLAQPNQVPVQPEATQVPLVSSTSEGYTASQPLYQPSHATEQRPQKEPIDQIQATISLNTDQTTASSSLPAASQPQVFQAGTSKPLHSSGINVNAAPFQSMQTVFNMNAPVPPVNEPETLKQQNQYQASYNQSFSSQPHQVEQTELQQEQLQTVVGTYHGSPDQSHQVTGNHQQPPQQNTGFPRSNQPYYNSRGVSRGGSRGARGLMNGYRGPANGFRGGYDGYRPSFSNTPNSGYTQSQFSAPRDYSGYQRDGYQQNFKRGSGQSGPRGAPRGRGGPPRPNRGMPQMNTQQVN
The assay can be described thus: cell-based or functional assay.

B1: anti-CAPRIN-1 monoclonal antibody #1 (antibody, V domains shown)
VH: EVQLHQFGAELVKPGASVKISCKASGYTFTDYNMDWVKQSHGKSLEWIGDINPNYDSTSYNQKFKGKATLTVDKSSSTAYMELRSLTSEDTAVYYCARSRSYDYEGFAYWGQGTLVTVSA
VL: DIQMTQSPASLSASVGETVTITCRASGNIHNYLAWYQQKQGKSPQLLVYNAKTLADGVPSRFSGSGSGTQYSLKINSLQPEDFGSYYCQHFWSTLTFGAGTKLELKR
Take B1: the “ADCC activity against MDA-MB-157” value is not below 20% and the “CDC activity against MDA-MB-231V” value was not below 30%.

B2: anti-CAPRIN-1 monoclonal antibody #4 (antibody, V domains shown)
VH: B1 VH
VL: SGDRVSLSCRASQSISNYLHWYQQKSHESPRLLIKYASQSISGIPSRFSGSGSGTDFTLSINSVETEDFGMYFCQQSNSWPYTFGAGTKLEIKQ
In the case of B2, the “ADCC activity against MDA-MB-157” value was not below 20% and the “CDC activity against MDA-MB-231V” value was not below 30%.

B3: anti-CAPRIN-1 monoclonal antibody #3 (antibody, V domains shown)
VH: B1 VH
VL: DIQLTQSPASLSASVGETVTITCRASGNIHNYLAWYQQKQGKSPQLLVYNAKTLADGVPSRFSGSGSGTQYSLKINSLQPEDFGSYYCQHFWSTLTFGGGTKLEIK
As for B3, the “ADCC activity against MDA-MB-157” value was not below 20% and the “CDC activity against MDA-MB-231V” value is not below 30%.

B4: anti-CAPRIN-1 monoclonal antibody #7 (antibody, V domains shown)
VH: LQESGAELARPGASVKLSCKASGYTFTSYWMQWVKQRPGQGLEWIGAIYPGDGDTRYTQKFKGKATLTADKSSSTAYMQLSSLASEDSAVYYCARGEYGNYFAYWGQGTTVTVSS
VL: TSDASLGERVTITCKASQDINSYLSWFQQKPGKSPKTLIYRANRLVDGVPSRFSGSGSGQDYSLTISSLEYEDMGIYYCLQYDEFPLTFGGGTKLEIKQ
Take B4: the “ADCC activity against MDA-MB-157” value is not below 20% and the “CDC activity against MDA-MB-231V” value is not below 30%.

These data come from patent US20120294860A1 (TORAY INDUSTRIES, published 2012).
